Results reported in article doi:10.1101/2020.04.03.023861 (bioRxiv, 2020).

Target: the molecule itself
Assay: detergent-resistant band of doubled size on SDS-PAGE and western blot

B1: TMEM70-FLAG (natural protein, human, UniProt Q9BUB7 82-260, looked up)
chain: LNTPSDKSEDGRLIYTGNMARAVFGVKCFSYSTSLIGLTFLPYIFTQNNAISESVPLPIQIIFYGIMGSFTVITPVLLHFITKGYVIRLYHEATTDTYKAITYNAMLAETSTVFHQNDVKIPDAKHVFTTFYAKTKSLLVNPVLFPNREDYIHLMGYDKEEFILYMEETSEEKRHKDDK
stoichiometry N: 2
